Target: T1, purified full length CFTR (UniProt P13569 1-1480)
T1 construct: cystic fibrosis transmembrane conductance regulator, full length, called Wt-CFTR in the SPR methods; also called pure CFTR; Wt-CFTR; source: purified, gift from Pr Robert Ford (University of Manchester, UK)
Test: SPR; Biacore 3000, calumenin amine-coupled to a CM5 chip (about 2000 RU), CFTR injected at 0.15 to 1.5 nM, 5 µl/min, HBS-EP pH 7.4, 25°C, triplicate
Settings: both partners purified

T1 sequence (P13569 whole entry): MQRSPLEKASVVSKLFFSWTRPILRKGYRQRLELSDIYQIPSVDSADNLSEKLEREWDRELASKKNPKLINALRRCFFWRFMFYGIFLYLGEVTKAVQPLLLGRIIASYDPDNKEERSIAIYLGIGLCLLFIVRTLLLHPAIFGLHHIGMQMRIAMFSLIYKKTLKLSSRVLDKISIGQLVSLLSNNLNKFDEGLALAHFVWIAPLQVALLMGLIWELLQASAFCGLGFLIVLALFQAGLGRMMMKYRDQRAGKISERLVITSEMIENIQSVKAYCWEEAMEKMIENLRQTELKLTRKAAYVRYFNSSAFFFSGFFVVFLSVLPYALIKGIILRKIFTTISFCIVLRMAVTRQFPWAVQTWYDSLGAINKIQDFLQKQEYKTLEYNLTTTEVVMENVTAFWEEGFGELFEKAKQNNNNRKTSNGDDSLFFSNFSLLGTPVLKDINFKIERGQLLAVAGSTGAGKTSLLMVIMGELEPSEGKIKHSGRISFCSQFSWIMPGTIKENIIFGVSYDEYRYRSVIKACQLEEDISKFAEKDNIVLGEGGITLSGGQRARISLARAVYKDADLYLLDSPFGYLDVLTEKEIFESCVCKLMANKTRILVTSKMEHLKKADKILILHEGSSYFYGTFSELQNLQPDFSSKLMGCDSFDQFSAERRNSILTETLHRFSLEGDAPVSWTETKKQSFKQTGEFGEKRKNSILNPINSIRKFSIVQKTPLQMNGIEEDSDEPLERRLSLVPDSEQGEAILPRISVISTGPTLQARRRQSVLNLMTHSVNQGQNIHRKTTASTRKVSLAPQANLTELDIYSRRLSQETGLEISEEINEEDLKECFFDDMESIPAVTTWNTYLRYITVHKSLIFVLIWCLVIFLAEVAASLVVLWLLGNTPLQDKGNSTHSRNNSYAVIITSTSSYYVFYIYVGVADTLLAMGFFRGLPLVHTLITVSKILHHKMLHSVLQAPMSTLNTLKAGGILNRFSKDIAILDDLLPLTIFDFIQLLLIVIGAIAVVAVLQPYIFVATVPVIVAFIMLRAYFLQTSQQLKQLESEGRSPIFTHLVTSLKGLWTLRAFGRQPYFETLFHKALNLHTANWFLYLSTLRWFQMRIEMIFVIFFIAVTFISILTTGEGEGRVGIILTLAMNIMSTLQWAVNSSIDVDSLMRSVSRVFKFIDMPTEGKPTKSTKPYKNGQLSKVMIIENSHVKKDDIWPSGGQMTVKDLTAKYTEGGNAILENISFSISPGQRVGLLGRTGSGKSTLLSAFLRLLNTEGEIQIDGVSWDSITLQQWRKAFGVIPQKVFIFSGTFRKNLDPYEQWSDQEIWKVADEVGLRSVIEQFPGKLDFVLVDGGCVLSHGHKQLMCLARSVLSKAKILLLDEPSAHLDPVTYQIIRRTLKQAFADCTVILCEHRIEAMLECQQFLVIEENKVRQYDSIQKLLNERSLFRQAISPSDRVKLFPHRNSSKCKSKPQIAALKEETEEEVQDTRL

Kd: 3.8 pM
B1: Pure recombinant human calumenin (natural protein, UniProt O43852 20-315, looked up)
chain: KPTEKKDRVHHEPQLSDKVHNDAQSFDYDHDAFLGAEEAKTFDQLTPEESKERLGKIVSKIDGDKDGFVTVDELKDWIKFAQKRWIYEDVERQWKGHDLNEDGLVSWEEYKNATYGYVLDDPDPDDGFNYKQMMVRDERRFKMADKDGDLIATKEEFTAFLHPEEYDYMKDIVVQETMEDIDKNADGFIDLEEYIGDMYSHDGNTDEPEWVKTEREQFVEFRDKNRDGKMDKEETKDWILPSDYDHAEAEARHLVYESDQNKDGKLTKEEIVDKYDLFVGSQATDFGEALVRHDEF
notes: calumenin, human, recombinant; No catalogue number, host, limits or tag are printed; also called pure calumenin; source: bought: Prospec (Israel)
